The series is described as follows: label from the status in PepcDB records.
As for “MKTYSVIAVASLLATNLLTFPSSSLAEIENKTRNSIEAVSHMQSNEKSELQKQLEAAKEREMKLEKREEILKQQEELFIKIDDLKQKKEELLEQAGEHNVQIEEVYQELNELKKQQEELEEKNPLQVKSNDQEKKTNELKSQEELKEKDGVEVKENNGQEEKVHEEFEEQKKKEELKKQQDELRKQQEELKKQQLELEQRIKQELERKQQEEQAKQELELKQKEEQAKRELELKQKEEQVKQELELKQKEEQVKQELELKQKEEQVKQELELKQKEEQEKQELELKQKEEQEKQELELKQKEEQKKQELELKQKEEQEKGERELKQAVSSIQAAPQSFPDVPGWAQESVYYLVHKKVISGMPDGTFSPSKVLSRAEAATIMAKILELEVSEGEKPTFTDSQDHWATPYIAAVEKAGVIKGEGNGKFNPNGQMTRAAMATMLVQAYQLEKKVHEELPTLFPDVKDHWGEKFINILVGMGISSGVDGGRWQPDRSITRAEAAQLVAVTDKSKDNELKMKKVSISKKFFTYNGPSLSSGISKEYGPREVTVYEERDGGWIRIHTDTGFKWVCLVEKKVNMNKNFLTYNEASLSSGISGEYAPQIVTVIEEREGNWIKVYTDLGYKWVCLIDKKVQIDRDFTTYDAPFRSANILDYYGPQAVTVVEERGTWLRIRTYAGYQWLDTKKEAKYLSKVFFAYDSPSFVSRVSGKYAPQTVEVYGEREGGWIQIQTSNGLKWVNEGNINRSQVILNVPSLYQFPELHNGCEVVSLQMLVEHQIGRSLNKVAFAFEMPFDQAKLKNYKTSSQIWGDPDVGFVGDVTGNTPGYSINPEPLKRLLDKYSRGTNLTGNDLSVLEDYVRNGKPVVTWVTVALNNPRAVTTWKTPGGKIIYARMNTHAVVLTGVDDNYVYYNDPFYGTKNVKVSKSRFASIYNQMGKKALSVD”, the protein production entry is given as “failed”.
Turning to “MKAWVLKRLGGPLELVDLPEPEAEEGEVVLRVEAVGLNFADHLMRLGAYLTRLHPPFIPGMEVVGVVEGRRYAALVPQGGLAERVAVPKGALLPLPEGLSPEEAAAFPVSFLTAYLALKRAQARPGEKVLVQAAAGALGTAAVQVARAMGLRVLAAASRPEKLALPLALGAEEAATYAEVPERAKAWGGLDLVLEVRGKEVEESLGLLAHGGRLVYIGAAEGEVAPIPPLRLMRRNLAVLGFWLTPLLREGALVEEALGFLLPRLGRELRPVVGPVFPFAEAEAAFRALLDRGHTGKVVVRL”, the protein production entry is “not failed”.
As for “MERISLSFVGDVMLAGSATDTLQRYGYSYPFSATAAELRRSDLVVGNLEAPLTDGGREFRAKRFRFKASPVAAAALKRAGFSVMTLANNHMMDFGADGLSDTIHHLNRNGIAFAGAGPSIADARREASVTVRGQTVAFLAYSLTQPIEFFATEGRPGTAPGYAGHYLADIRRVRSSADHVVVSFHWGQERAALPSPYQIETAHRAIDAGADIVIGHHPHVLQGIEIYRGSPIFYSLGNFAFGSRSPSADRSIIARVTLGEGPPIVEVIPLNVLFREVRFQPAILTGRKAADVVDRLNRLSAPFSTVITSTAGSHLVAPAEANARLARRQLEHHHHHH”, the entry is “failed”; as for “MSTQKQEQAFFGLVWLARLTVCLLTVGLALAIDSTATERHRADVRAKWQEKVDDLGLRLRATILQNTQTVWGLAANVAVQPDIGEERFQRLASVIFKLAPELLNIGLAPGFVIKHIYPLDGNEAALGLDLQAQSLSRDQMALLLESRRAVFSGPINLVQGGQGLAARIPIFENDTGRVWGVISTILDLDRLYTAIGLDSLPPEVVFALSTTGSGNIDKGLFFGEPDAAWQEPVSTTMAMPGFSWKLYAQPADGWPDHPDSPWLLRSLLGLVTLIIIAGTLWITTLILRDRQMQLRFWGLFELAPFGIALYDAISGELLQANPGFTRILDSKANNIGYFDDVRSLSGDKQRSEPSISNRLASQVRFTGVEGFFPMADGTLQPLMLHGLRLDLQGKESVIWIIVEDISQRKEAERLKSEFISTVSHELRTPLTSISGALSLLTTNAVGELSGKAQQLLKIAQRNSDQLGFLINDLLDIEKLIAGKMDFNVIEFPVSEAITESLENIQNYATEKNITLNAQELSTTTVKADKQRLAQALNNILSNAIKFSPVNGQIRIWTKLHGQGLRIYVQDEGPGIAPEFRERMFQKFSQADSSDRRSKGGTGLGLAITKELMARMEGDVDFTSEAGQGATFWLEVPAA”, “failed”; as for “PEKPAKTQKTSLDEALQWRDSLDKLLQNNYGLASFKSFLKSEFSEENLEFWIACEDYKKIKSPAKMAEKAKQIYEEFIQTEAPKEVNIDHFTKDITMKNLVEPSLSSFDMAQKRIHALMEKDSLPRFVRSEFYQELI”, “not failed”.
For the sequence “RNVWVVAELDEQGVSEASLQMLTPARRIADKLGESVVGVIAGPPGSSQLAVEMVERGADEVIVVEHERLSEYYPDVVGSVIVELSLKYKPSVILFAATARGREMAPYVANTLKTGITADCTDFDVDPKTRDVLLIRPPFSAIMLAYIRTPFRRPQIGTARPNVFPLPERQPGRQGRIVREEVEPPEPMARLVNRVRIPRSEVP”, the protein production entry was “failed”.
As for “NEHEYAYIMQTSGSTGKPKRIAVSYSNLHCYISQIDKLFPLNAQDRVGQYSDLTFDLSVHDIFYSLISGACLYVVPELAKLSPAEFIHHHQLTVWLSVPTVIELALQRQTLTPHSLPSLRLSFFCGQALLHDLAEQWQQATQQPVINLYGPTECTIAVTYHRFVAHSGMASV”, the protein production entry is reported as “failed”.
For “MIPGMNAKQMKKMERQMKKMGMDMKDLKGVKEVIIRLEDKELVIPNAEVSLMNVMGQETYQVTGKAHEVAIDEELVIPDEDIEMVANQANVSEDEAKAALEDTNGDLAEAILKLNQ”, the protein production result was “failed”.
The entry for “MKNPVPRIIKTPVIAMYHDDRREELTIEVELSDVKDENITLMMHENSFYIKAFSETVEYLGSFFLDGPVDPEKAVAANNNGMLTIKVPYKEGFTCARFIHVD” is “failed”.
The entry for “MAQNEGVSFSECVAAAKLIRSSNGPGWRQAWEELARSHVQRAEEARRTGNEPEAQKSWLHAANYFMAAAIESCPEGAEPALGALARSCLHNYLAHLTPQGETVAIPWLEPRSLEGFYLPVGTYSAETGPVVVCIAETRRTKEEILSLVLRSARKRGMTLLCVDLPDEPPSSRAGPETGIPAILDYLIDGRGIDAKRIAVISDGSPSSLVTRGIALDGRIAAAVCDGGLWDLWVARQTEACGAALGMVQGCARRPAVSCPMLVPLLASEGIEPGHARQLLTEHHPGNRDILLKVFGETSSGPWTLNGYDPILVADFVFDWVGQQLKAATGDADCIRRLESRL” is “failed”; for “MAWNQPGNNGQDRDPWGSSKPGGNSEGNGNKGGRDQGPPDLDDIFRKLSKKLGGLGGGKGTGSGGGSSSQGPRPQLGGRVVTIAAAAIVIIWAASGFYTIKEAERGVVTRFGKFSHLVEPGLNWKPTFIDEVKPVNVEAVRELAASGVMLTSDENVVRVEMNVQYRVTNPEKYLYSVTSPDDSLRQATDSALRGVIGKYTMDRILTEGRTVIRSDTQRELEETIRPYDMGITLLDVNFQAARPPEEVKAAFDDAIAARENEQQYIREAEAYTNEVQPRANGQAQRILEEARAYKAQTILEAQGEVARFAKLLPEYKAAPEITRERLYIETMEKVLGNTRKVLVNDKGGNLMVLPLDQMLKGGNAPAAKSDNGASNLLRLPPASSSTTSGASNTSSTSQGDIMDQRRANAQRNDYQRQGE” it is “failed”.
As for “MSRLFHQRGNVMPIHVITALPGGGKTAIMVEMLEAEAKIGARPLFAAGIDGLQPGLATVLDDPSQWNAKDAHGNYVVPDGSLVFVDEAWKWFGMKYGGSGMRQTTPDHVRALAEHRHRGLDFVWTTQQAHKQLYSFVHGLIGRHTFIKRRFGTRFLDVWEWDEMVENVNSASNREFSRHQVRTLPKHVYSLYKSAEIHT”, the entry is “failed”.
Consider “MKTVPAMLGTPRLFREFFILHLGLWSILCEKATKRNDEECEVQLNIKRNSKHSAWTGELFKIECPVKYCVHRPNVTWCKHNGTIWVPLEVGPQLYTSWEENRSVPVFVLHFKPIHLSDNGSYSCSTNFNSQVINSHSVTIHVRERTQNSSEHPLITVSDIPDATNASGPSTMEERPGRTWLLYTLLPLGALLLLLACVCLLCFLKRIQGKEKKPSDLAGRDTNLVDIPASSRTNHQALPSGTGIYDNDPWSSMQDESELTISLQSERNNQGIVYASLNHCVIGRNPRQENNMQEAPTEYASICVRS”, for which the protein production entry is on record as “not failed”.

Source of the values: a protein production outcome set (Wang et al. 2014).
